Tested on: MS2 coat protein
Test: apparent KD of MS2 coat protein; designed switch direction (-1 OFF switch, 1 ON switch): 1; higher = weaker reporter binding
Procedure, shortened: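 The buffer was Tris-HCl pH 7.5 with KCl, MgCl2, BSA, DTT, tRNA and Tween-20. In it, SNAP-549-labelled MS2 coat protein was titrated in doubling steps from 0.7 or 1.5 nM to 3 µM over chip-bound RNA switches transcribed by stalled E. coli RNA polymerase on Illumina chips. Apparent KD is the per-design median over clusters of curve fits to normalised fluorescence.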

[1] = Eterna round: R95, input ligand: FMN 200 uM
[2] = Eterna round: R95, input ligand: microRNA oligo, concentration not stated
[3] = Eterna round: R95, input ligand: none
[4] = input ligand: microRNA oligo, concentration not stated

AUAAGUUCGAUGCUCGUCUCUCCGUACAAACAUGAGGAUCACCCAUGUGAUCGGGCAGUAGCCCGAUCAGUAUGGCC [Soriin] (puzzle: Sensor for hsa-mir-208a)
apparent KD of MS2 coat protein [1]: 39.3 nM | apparent KD of MS2 coat protein [2]: 20.5 nM | apparent KD of MS2 coat protein [3]: 47.8 nM

AUAAGUUUGAUGCUCGUCUCUCCGUACAAACAUGAGGAUCACCCAUGUGGUCGGGAAGUAGCCCAGCCAGUAUGGCC [Anriquradi] (puzzle: Sensor for hsa-mir-208a)
apparent KD of MS2 coat protein [1]: 15.3 nM | apparent KD of MS2 coat protein [2]: 19.9 nM | apparent KD of MS2 coat protein [3]: 17.1 nM

AUAAUAAUAACUGAGGAUAUGUUGAUAAAGACAUGAGGAUCACCCAUGUGAAAUAAAAUAAUAAUACAGAAGGCAGAAUAAUAAA [JMF's solution 1] (puzzle: Same State 2)
apparent KD of MS2 coat protein [1]: 23 nM | apparent KD of MS2 coat protein [2]: 29.7 nM | apparent KD of MS2 coat protein [3]: 25.7 nM

AUACAGGAGCCACAUGAGGAUCACCCAUGUGACACGCAAAUGAAGGAUAUCCGACUCCAGACGAGGGAGAAGGUCACGGCGGGC [Eternabot solution 13] (Eterna round: R96, puzzle: Same State NG 3)
apparent KD of MS2 coat protein (input ligand: FMN 200 uM): 16.6 nM | apparent KD of MS2 coat protein [4]: 11.5 nM | apparent KD of MS2 coat protein (input ligand: none): 20.1 nM

AUACAUGAGGAUCACCCAUGUAAUUAAUUAACUAGUAAGAUCUAGGAUAUCAGCUCGAUUAGAGCUGAGAAGGAGAUCACAUGU [SSNG3/21-A2] (Eterna round: R96, puzzle: Same State NG 3)
apparent KD of MS2 coat protein [4]: 29.3 nM

AUACAUGAGGAUCACCCAUGUAAUUAAUUAAUUAAUAAGAUCUAGGAUAUCAGCUCGAAUAGAGCUGAGAAGGAGAUCACAUGU [SSNG3/21-B1] (Eterna round: R96, puzzle: Same State NG 3)
apparent KD of MS2 coat protein [4]: 19.4 nM

AUACAUGAGGAUCACCCAUGUAAUUAAUUAAUUAAUAAGAUCUAGGAUAUCAGCUCGAUUAGAGCUGAGAAGGAGAUCACAUGU [SSNG3/21-B2] (Eterna round: R96, puzzle: Same State NG 3)
apparent KD of MS2 coat protein [4]: 16.8 nM

AUACAUGAGGAUCACCCAUGUGAGCAGAGAUAUCUGAUGUACAAGGAUAUCCGAGGGAUCCCGAUGGAGAAGGUGUGCCACCUG [Eternabot solution 22] (Eterna round: R96, puzzle: Same State NG 3)
apparent KD of MS2 coat protein (input ligand: FMN 200 uM): 57.1 nM | apparent KD of MS2 coat protein [4]: 43 nM | apparent KD of MS2 coat protein (input ligand: none): 55.9 nM

AUACCAUCGGGAGGAUAUGGCACCUUAUUGGUGCCAGAAGGUCCAACAUGAGGAUCACCCAUGUGGGAGUGGUCUAAUGACCAC [Fiskers NG1ss - 28] (Eterna round: R96, puzzle: Same State NG 1)
apparent KD of MS2 coat protein (input ligand: FMN 200 uM): 121 nM | apparent KD of MS2 coat protein [4]: 120 nM | apparent KD of MS2 coat protein (input ligand: none): 171 nM

AUACUCAUGUAAGGAUAUGCAGCCGAAACGGCUGCAGAAGGUACUAUAAUACAUGAGGAUCACCCAUGUCAAAAUAAAAUAGUU [Mat - Same State NG 1 - JL mod - D100] (Eterna round: R96, puzzle: Same State NG 1)
apparent KD of MS2 coat protein (input ligand: FMN 200 uM): 20.6 nM | apparent KD of MS2 coat protein [4]: 25.4 nM | apparent KD of MS2 coat protein (input ligand: none): 25 nM

AUAUAACAUGAGGAUCACCCAUGUCAACAAAGUCGAGGAUAUGGGCAAAUAAAAUAAGAACCAGAAGGCGAAUAAU [salish99_ss1_r3_047] (Eterna round: R96, puzzle: Same State 1)
apparent KD of MS2 coat protein [4]: 189 nM

AUAUAACAUGAGGAUCACCCAUGUCAACAAAGUCGAGGAUAUGGGCAAAUAAAAUAAGAACCAGAAGGCGAAUAAU [salish99_ss1_r3_047] (puzzle: Same State 1)
apparent KD of MS2 coat protein [1]: 42.2 nM | apparent KD of MS2 coat protein [2]: 462 nM | apparent KD of MS2 coat protein [3]: 693 nM

AUAUAACAUGAGGAUCACCCAUGUCACUAAAGUCGAGGAUAUGGGCAGGUUAUAUCCGAACCAGAAGGCGAAUUAU [SS1 Teenbexe 6] (Eterna round: R96, puzzle: Same State 1)
apparent KD of MS2 coat protein (input ligand: FMN 200 uM): 41 nM | apparent KD of MS2 coat protein [4]: 221 nM | apparent KD of MS2 coat protein (input ligand: none): 208 nM

AUAUAACAUGAGGAUCACCCAUGUCACUAAAGUCGAGGAUAUGGGCAGGUUAUAUCCGAACCAGAAGGCGAAUUAU [SS1 Teenbexe 6] (puzzle: Same State 1)
apparent KD of MS2 coat protein [2]: 163 nM

AUAUGAGAAGCAGGAUAUGCGGAGAAGAAAGAAGCAGAAGGGCUUAUGGGACAACAUGAGGAUCACCCAUGUUCUCUGCGAUGA [AK SSNG1-V2-3.1] (Eterna round: R96, puzzle: Same State NG 1)
apparent KD of MS2 coat protein (input ligand: FMN 200 uM): 60.6 nM | apparent KD of MS2 coat protein [4]: 148 nM | apparent KD of MS2 coat protein (input ligand: none): 135 nM

AUAUGAGAAGCAGGAUAUGUGAAAAAAAAACAUACAGAAGGGUUUAUGGGACAACAUGAGGAUCACCCAUGUUCUCUGUGAUGA [AK SSNG1-V2-1.1] (Eterna round: R96, puzzle: Same State NG 1)
apparent KD of MS2 coat protein [4]: 59.2 nM

AUAUGAGAAGCAGGAUAUGUGGAGAAGAAACAAACAGAAGGGCUUAUGGGACAACAUGAGGAUCACCCAUGUUCUCUGUGAUGA [ssng1 a] (Eterna round: R96, puzzle: Same State NG 1)
apparent KD of MS2 coat protein (input ligand: FMN 200 uM): 47.9 nM | apparent KD of MS2 coat protein [4]: 137 nM | apparent KD of MS2 coat protein (input ligand: none): 240 nM

AUAUGAGGAGCAGGAUAUGCGAAGAAGAAAGAAGCAGAAGGGCUCAUGGGACGACAUGAGGAUCACCCAUGUACUUCGCGAUGA [AK SSNG1-V2-6] (Eterna round: R96, puzzle: Same State NG 1)
apparent KD of MS2 coat protein (input ligand: FMN 200 uM): 133 nM | apparent KD of MS2 coat protein [4]: 278 nM | apparent KD of MS2 coat protein (input ligand: none): 538 nM

AUCCGGAGAAAACAAAUCCGACAUGAGGAUCACCCAUGUACACAGGAUAUCAGCCCGUUGAGGGCUGAGAAGGGUGGCCGAGUG [Cexeati] (Eterna round: R96, puzzle: Same State NG 3)
apparent KD of MS2 coat protein (input ligand: FMN 200 uM): 267 nM | apparent KD of MS2 coat protein [4]: 72.7 nM | apparent KD of MS2 coat protein (input ligand: none): 130 nM

AUCCUACAUGAGGAUCACCCAUGUGACGCCUCAAUAGGAUAUCGGGCCCAAAAUCGGGCACGAGAAGGAUUGAAGC [Aveso] (puzzle: Same State 1)
apparent KD of MS2 coat protein [1]: 85.2 nM | apparent KD of MS2 coat protein [2]: 172 nM | apparent KD of MS2 coat protein [3]: 163 nM

AUGAAGAAUUAAGGAUAUUGAUUACAUAUGUUUAACAUGAGGAUCACCCAUGUGGGUUGCGGUAUCGAGAAGGUAAAAUAAUAG [Mat - same State NG 2 - JL mod - D85] (Eterna round: R96, puzzle: Same State NG 2)
apparent KD of MS2 coat protein (input ligand: FMN 200 uM): 187 nM | apparent KD of MS2 coat protein [4]: 123 nM | apparent KD of MS2 coat protein (input ligand: none): 158 nM

AUGAUCUACCGAAAGGUAGAUCGGCUUGUACAUGAGGAUCACCCAUGUAUGUACAAGCUUUUUGCUCGUCUUAUAAA [Modxample - Jieux - Sensor for bsa-mir-208a] (Eterna round: R96, puzzle: Sensor for hsa-mir-208a)
apparent KD of MS2 coat protein (input ligand: FMN 200 uM): 279 nM | apparent KD of MS2 coat protein [4]: 16.6 nM | apparent KD of MS2 coat protein (input ligand: none): 282 nM

AUGCCAAAAUGAGGAUAUGGAGCCUUAUUGGCUCCAGAAGGCGUGACAUGAGGAUCACCCAUGUGGCAGUGGUCUAAUGACCAC [Eli NG1ss - 44] (Eterna round: R96, puzzle: Same State NG 1)
apparent KD of MS2 coat protein (input ligand: FMN 200 uM): 21.9 nM | apparent KD of MS2 coat protein [4]: 53.3 nM | apparent KD of MS2 coat protein (input ligand: none): 77 nM

AUGCCAAAUGGAGGAUAUGGAGCCUUAUUGGCUCCAGAAGGUCGGACAUGAGGAUCACCCAUGUGGCAGUGGUCUAAUGACCAC [Eli NG1ss - 42] (Eterna round: R96, puzzle: Same State NG 1)
apparent KD of MS2 coat protein (input ligand: FMN 200 uM): 242 nM | apparent KD of MS2 coat protein [4]: 293 nM | apparent KD of MS2 coat protein (input ligand: none): 463 nM

AUGGUCAAGUGUGAGGAUAUCCAUGCUCCCACAUGAGGAUCACCCAUGUCUUAAAGGGCGUAAAGGGAGAAGGUACGAACGCCAC [Edatxein] (Eterna round: R96, puzzle: Same State 2)
apparent KD of MS2 coat protein (input ligand: FMN 200 uM): 73.1 nM | apparent KD of MS2 coat protein [4]: 49.2 nM | apparent KD of MS2 coat protein (input ligand: none): 80.6 nM

AUUAAACAUGAGGAUCACCCAUGUCAACAAAGUCGAGGAUAUGGGCAAAUAAUAUAAUAACCAGAAGGCGAAUAAU [salish99_ss1_r3_081] (puzzle: Same State 1)
apparent KD of MS2 coat protein [1]: 36.7 nM | apparent KD of MS2 coat protein [2]: 28.1 nM | apparent KD of MS2 coat protein [3]: 97 nM

AUUAAACAUGAGGAUCACCCAUGUCAACAAAGUCGAGGAUAUGGGCAUAUUAUCUUAUUACCAGAAGGCGAAUAAU [salish99_ss1_r3_087] (puzzle: Same State 1)
apparent KD of MS2 coat protein [2]: 326 nM

AUUAACAUGAGGAUCACCCAUGUUACGAGCUUAGCUCGGACACAGGAUAUCCGGUCCUAGAGACCGGAGAAGGGUGCCUUAUAA [Zara MOD4] (Eterna round: R96, puzzle: Same State NG 3)
apparent KD of MS2 coat protein (input ligand: FMN 200 uM): 742 nM | apparent KD of MS2 coat protein [4]: 123 nM | apparent KD of MS2 coat protein (input ligand: none): 265 nM

AUUAACUUGAGAGGAUAUGUAGAGGAUCACCCUACAGAAGGCUCGUUAGAGAGGAUAUGUAGAGGAUCACCCUACAGAAGGCUC [pwkr ssNG DX.9] (Eterna round: R96, puzzle: Same State NG 1)
apparent KD of MS2 coat protein (input ligand: FMN 200 uM): 95.1 nM | apparent KD of MS2 coat protein [4]: 82.4 nM | apparent KD of MS2 coat protein (input ligand: none): 88.7 nM

AUUAAUAAUCGAGGAUAUCACGUCGUUUAGACGUGAGAAGGCGAUCAUAACAUGAGGAUCACCCAUGUAUUACAUGAAGUUAAU [SSNG1/4-B3] (Eterna round: R96, puzzle: Same State NG 1)
apparent KD of MS2 coat protein (input ligand: FMN 200 uM): 37.8 nM | apparent KD of MS2 coat protein [4]: 26.3 nM | apparent KD of MS2 coat protein (input ligand: none): 39.3 nM

AUUAGACAUGAGGAUCACCCAUGUAGGCAGUCAUGAGGAUAUGGACAAGGUGCUCAAGGUCCAGAAGGCAUACGCC [Maxeus] (Eterna round: R96, puzzle: Same State 1)
apparent KD of MS2 coat protein (input ligand: FMN 200 uM): 12.2 nM | apparent KD of MS2 coat protein [4]: 28.3 nM | apparent KD of MS2 coat protein (input ligand: none): 28 nM

AUUAUAUAUGCAGGAUAUGAUUAACAUGAGGAUCACCCAUGUGGUGUUGUGAGUAAGGAGAGUGAUCAGAAGGGCAUUUUUUUU [JMF's solution 63] (Eterna round: R96, puzzle: Same State NG 2)
apparent KD of MS2 coat protein (input ligand: FMN 200 uM): 852 nM | apparent KD of MS2 coat protein [4]: 163 nM | apparent KD of MS2 coat protein (input ligand: none): 353 nM
